In patent US20030181372A1:

Target: human paraoxonase (PON1A) (human) (UniProt P27169)
Test: cell-based or functional assay

Chain of UniProt P27169 (P27169 2-355 limits assumed): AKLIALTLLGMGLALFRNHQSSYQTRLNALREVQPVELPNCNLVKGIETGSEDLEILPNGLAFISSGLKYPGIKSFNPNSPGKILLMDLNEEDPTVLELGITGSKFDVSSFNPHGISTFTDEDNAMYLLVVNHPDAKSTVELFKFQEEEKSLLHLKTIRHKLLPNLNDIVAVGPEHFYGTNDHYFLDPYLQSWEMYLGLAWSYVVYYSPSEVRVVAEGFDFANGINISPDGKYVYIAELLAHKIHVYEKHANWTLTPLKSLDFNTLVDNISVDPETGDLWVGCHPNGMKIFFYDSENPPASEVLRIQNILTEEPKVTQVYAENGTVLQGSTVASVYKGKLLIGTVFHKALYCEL

| Substance | arylesterase activity, CHO-PON cells cultured 24 h with 10 µg/mL ApoA-I (U/mg cell protein) | increase in arylesterase activity compared to ApoA-IWT | also measured |
| --- | --- | --- | --- |
| recombinant human ApoA-I R151C (ApoA-IParis) | – | – | secreted PON arylesterase activity, CHO-PON cells cultured 24 h with 10 µg/mL ApoA-I (U/mg cell protein): 0.086 |
| recombinant human ApoA-I R27C | 0.125 | 30% | – |
| recombinant human ApoA-I R173C (ApoA-IMilano) | – | – | secreted PON arylesterase activity, CHO-PON cells cultured 24 h with 10 µg/mL ApoA-I (U/mg cell protein): 0.076 |
| recombinant human ApoA-I K96C | 0.067 | – | reduction in arylesterase activity compared to ApoA-IWT: 30% |
| recombinant human ApoA-I wild type (His-6 tagged) | 0.095 | – | ApoA-I concentration at which secreted PON activity is maximal (CHO-PON cell medium): 12 µg/mL; PON activity of baseline conditioned medium incubated 3 h at 37° C. with 10 µg/mL lipid-free ApoA-I postculture (relative to baseline): 94.4%; PON activity of cells grown with 10 µg/mL ApoA-I over cells grown without ApoA-I: 203%; arylesterase activity in medium at 24 h, CHO-PON cells in the presence of 10 µg/mL ApoA-I (unit/mg of cell protein): 0.087; increase in arylesterase activity on culturing CHO-PON cells with ApoA-I: 2.1 fold |
| recombinant human ApoA-I R10C | 0.126 | 30% | – |
| recombinant human ApoA-I R61C | 0.121 | 30% | – |
